For assay [1], the target named is human 4-1BB (human) (UniProt Q07011). Put plainly: FACS; panel A.
Assay [2] has the same target. The assay can be described thus: FACS; panel C. For orientation: In flow cytometry, cells or beads pass a laser one at a time.
The target in a further assay is CHO-K1/hu OX40 (human) (UniProt P43489). Put plainly: FACS.
Sequence of CHO-K1/hu OX40 (human) (P43489 29-277): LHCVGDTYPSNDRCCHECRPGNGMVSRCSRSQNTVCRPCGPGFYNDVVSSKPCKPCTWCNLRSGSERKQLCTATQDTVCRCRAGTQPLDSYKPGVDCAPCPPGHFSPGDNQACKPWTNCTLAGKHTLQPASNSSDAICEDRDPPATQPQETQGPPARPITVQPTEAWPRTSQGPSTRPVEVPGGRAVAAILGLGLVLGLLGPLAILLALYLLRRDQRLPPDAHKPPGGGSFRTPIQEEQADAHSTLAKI

Sequence of human 4-1BB (human) (Q07011 24-255): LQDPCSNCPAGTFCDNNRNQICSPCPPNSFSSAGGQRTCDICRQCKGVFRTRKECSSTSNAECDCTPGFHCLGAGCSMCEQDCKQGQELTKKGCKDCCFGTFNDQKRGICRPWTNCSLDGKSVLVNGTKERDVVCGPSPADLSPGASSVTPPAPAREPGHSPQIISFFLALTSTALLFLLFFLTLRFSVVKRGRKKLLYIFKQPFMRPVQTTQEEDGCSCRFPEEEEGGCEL

For the substance “Anti-4-1BB monoclonal antibody Urelumab analog (hIgG4)”, the values for the EC50 with human 4-1BB (human) [1] and with human 4-1BB (human) [2] were 0.347 nM and 1.01 nM, respectively.
Pogalizumab: in the assay with CHO-K1/hu OX40 (human), the EC50 (in general, the concentration at which the effect is half-maximal) was 1.15 nM. This lies in the single-digit nanomolar range.

(Values after patent US20230287143A1.)
